Here are results for 41 sequences from the nanobody polyreactivity screen of Harvey et al. (2022).

This series can be described thus: yeast display, Sf9 membrane polyspecificity reagent, FACS + sequencing; frameworks hold sequencing errors. In short, it runs like this: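 Nanobodies came from a synthetic yeast display library in Saccharomyces cerevisiae BJ5465, induced with galactose for 36–48 hours and stained for 1 hour at 4 °C with 10% biotinylated, detergent-solubilized Sf9 membrane reagent. Cells were enriched on streptavidin microbeads and then FACS-sorted, with low and high (top ~1%) gates set on anti-HA fluorescence for expression and streptavidin fluorescence for reagent binding. Each polyreactivity label reflects the gate a clone came from. Genes were amplified by colony PCR, sequenced by MiSeq 2 × 250 and filtered by CDR length.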
As to “QGQLVESGGGLVQAGGSLRLSCAASGSTFGKYVMGWYRQAHGKERELVAAISRSGGSTYYADSVKGRFTISRDNAKNTVYLQLNSLKPDDTAVYYCAAYNGITSHLRFDYWGQGTQVTVSS”, the “polyreactivity (PSR sort gate)” value is given as “high polyreactivity”.
The same measure for “QGQLVESGGGLVQAGGSLRLSCAASGSTFGYNVMGWYRQAPGKERELVAAINYSGVRTYYADSVKGRFTISRDNAKNTVYLQMNSLKPEDTAVYYCNATPTRAVGPYQYNYWGQGTQVTVSS”: “high polyreactivity”; for “QGQLVESGGGLVQAGGSLRLSCAASGSTFRLYAMGWYRQAPGKERELVAAISQRGASTYADSVKGRFTISRDNAKNTLNLQMNSLKPEDTAFYYCSAVRNCRYWYRQYGFCGQGTQVTVSS”: “high polyreactivity”.
For “QGQLVESGGGLVQAGGSLRLSCAASGSTYLGNDMAWYIQAPGKERELVATITGSSGSTYYADSVKGRFTISRDNAKNTVYLQMNSLKPEDTAVYYCNTVYNYWDCYDYWGQGTQVTVSS”, the “polyreactivity (PSR sort gate)” value is listed as “low polyreactivity”.
With “QGQLVESGGGLVQAGGSLRLSCAASVRTSVINAMGWYRQAPGKERELVAAITKRGGSTYYADSVKGRFTISRDIAKNTVYLQMNSLKPEDTEVYYCAKYPIYIQYDSWGQGTQVTVSS”, the “polyreactivity (PSR sort gate)” value is recorded as “high polyreactivity”.
Consider “QGQLVESGGGLVQAGGSLRLSCAAYGRIFYVYAMGWYRQAPGKERELVATITSSGDGTYYADSVKGRFTISRDNAKNTGYLQMNSLIPEDTAVYYCAARSWPYSQTGKRFVEYYYWGQGTQVSVSS”, for which the “polyreactivity (PSR sort gate)” value is given as “low polyreactivity”.
As to “QGQLVESGGGLVQAGGSLRLSCADSGNTFNPNAMGWYRQAPGKERELVAVIRFRGVSKYYADSVKGRFTISRDNAKNSVYLQMNSLKPEDTAVYYCAADFLYYYLRYYFWGQGTQVTVSS”, the “polyreactivity (PSR sort gate)” value is “high polyreactivity”.
For “QGQLVESGGGLVQAGGSLRLSCAGSGRTFSSNAMGWYRQGRGKVRELVASISFRGGRTYYADSVKGRFTISRHNAKKTVYLQMNSLKPEDTAVYYCVSRTKRTGYGYWGQGTQVTVSS”, the “polyreactivity (PSR sort gate)” value is listed as “high polyreactivity”.
The same measure for “QGQLVESGGGLVQAGGSLRLSCPASGNTFKYYAMGWYRQAPGKEWELVAAISYSGGSTYYADSVKGRFTISRDNAKNTVYLQMNSLKPEDTAVYYCAADPTNSYLEYDEWGQGTQVTVSS”: “low polyreactivity”; for “QGQLVESGGGLVQAGGSLRLSSAASGSTFARYAMGWYRQAPGKERELVAVIRSGGSTNYADSVKGRFTISRDNAKNTVYLQMNSLKPEDTAGAADLWTLHRWATYGYWGQGTQVTVSS”: “low polyreactivity”.
In the case of “QGQLVESGGGLVQAGGSLRLTCSASGSTFDSYGMGWYRQAPGKERELVASISSRGGSTYYADSVKGRFTISRDTAKNTVYLQMNSLKPEDTAVYYCAADWLSWFHGYGMYYWGQGTQVTVSS” it was “low polyreactivity”.
In the case of “QGQLVESGGGLVQEGGSLRLSCAASGSTFKRYVMGWYRQAPGKERELVAAITWSGTRTYYADSVKGRFTISRDNAKNTVYLQMNSLKPVDTAVYYCAARLYGGYDWGQGTQVTVSS” it was “high polyreactivity”; in that of “QGQLVESGGRLVQAGGSLRLSCAASGFIFRSYAMGWYRQAPAKERELVAVISRRGVNTPYADSVKGRFTISRDTSKNTVYLQMNSLKAEDTAVYYCAKGLTALGDYWGQGTQVNVSS”, “high polyreactivity”; in that of “QGQLVESGGVLVQGGGSLRLSCAASGSIFVYNAMGWSRQAPGKERELVAANTSSGASTYYADSVKGRFPISRDNAKNTVYLQMISLNPEDTDVYYCNAGADSTVGNYVTSFSQYDFWGQGTQVTVSS”, “low polyreactivity”.
On to “QGQLVQSGVGLVQAGGSLSLSCAASGIIFTWYDMGWYRQAPGKERELVAAISNSGGSTYYADSVKGRFTISRDNAKNTVYLQMNSLKPEDTAVYYCNAGSYVCEEDYWGQGTQVTVSS”, for which the “polyreactivity (PSR sort gate)” value is recorded as “high polyreactivity”.
In the case of “QGQPVESGGGLVQAGGILRLSCAASGFISGGNAMGWDRQAPGKEREFVAAIDNTGSTYYADSVKGRFTISRDNEKNTVYLQMISLKPEDTAVYYFNAEVTEDYVDNDYGGQGTQVTVSS” it was “low polyreactivity”; in that of “QGQRVESGGGLVQAGGSLRLSCAPSGRTFKYYAMGWYRQAPGKERELFAAISYTGGSTYFADSVMGRFTISRDNAKNTVYLQMNSLKPEDTAVYYCARSYYTNGNALKRDYWGQGTQVTVSS”, “high polyreactivity”; in that of “QHQLVESGGGLVQAGASLRLSCAASGRTFFKNAKGWYRQAPGKERELVAGISRTGSTNYADSVKGRFTISSDNAKNTVYLEMNSLKPEDTAVYYCAAGVLGLPLRHRYDYWGQGTQVTVSS”, “low polyreactivity”.
With “QIQLVESGGGLDQAGGSLRISCAASAYTYVDYIGCYIPAPGKERELVADIDNSGGGTYYADSVTGRFTISRDNAKNTVYFLMNSLKAEDTAVYYCAAEFPYDDYYSNRDYDYWGQGTQVTVSS”, the “polyreactivity (PSR sort gate)” value is given as “low polyreactivity”.
In the case of “QIQLVESGGGLVQAGGSLRLSCAASGSIFSGYAMGWYRQAPGKERELVAAITSGGSTDYADSVKGRFTISRDNAKNTVYLQMNSLKPEDTAVYYCAAEGGYSSYGYDYWGQGTQVTVSS”, the “polyreactivity (PSR sort gate)” value is “low polyreactivity”.
Consider “QLHLVESGGGLVQAGGSLRLSCAASGITFAGYALGWYRQAPGKERELVASITWGGGRTYYADSVKGRFTSSRDNAKNTVYLQMNSLKPEATAVYYCATRRRPQYNKYDYWGQGTQLTVSS”, for which the “polyreactivity (PSR sort gate)” value is “high polyreactivity”.
In the case of “QLQHVESGGGLVQAGGSLRLSCAASGYIFPVNAMGSYRQAPGKERELVASLTSGGSTYYADSVKGRFTISRDNAKNTVYLQMNSLKPEDTAVYYCAAQLGYAKPYVYGEWYYYWGQGNQVTVSS” it was “low polyreactivity”; in that of “QLQIVESGGGLVQAGGSLRISCAASVFTFCKYAMGWYRPAPGKERELVAAISVSGGRTYSADSVKGRFTISRDNAKNTVYLQMNSLKPEDTEVYYCNATQWRPYVGGEYWGQGTQVTVSS”, “high polyreactivity”.
The same measure for “QLQLEESGGGLVQAGASLPLSCAASGLTFVEYAMGCYRQAPGKEREFVAAIRSRGGSTYYADSVKGRFTISRDNAKTTVYLQMNSLKPEDTAVYYCNADGYFWGQGTQVTVSS”: “low polyreactivity”; for “QLQLEESGGGLVQAGGSLRLSCAASGRIFNYYAMGWYRPAPGKEKELVAAISTVCGSTYYADSVKGRFTISRDKAKNTVYIQMHSLKPEDTSVYYCAAYQYYDFSYSYDYWGQGTQVTVSS”: “low polyreactivity”; for “QLQLQESGGGLVQAGGSLRLTCAASGYIFPTAIMRWYRQAPGTERKLVAASNPGSNTYYADSVKGRFTFSLDNAKNTVYLQMNSLTPEDAAVYSCAVSIWLDGTLDFWGQGTQVTVSS”: “low polyreactivity”.
In the case of “QLQLVDSGGGLVQAGGSLRLSCAASGKTISSYAMGWYRQAPGKEREFVAAISRGARTYYADSVKGRFTISRDNAKNTVYLQMNSLKPEDTAVYYCATRWPHYGGYYYWGQGTQVTVSS” it was “high polyreactivity”; in that of “QLQLVDSGGGLVQAGGSLRLSCAASGSIFGAYAMGWYRHAPGKERELVAAINYGGATTYYADSVKGRFTISRDNAKNTVYLQMNSLIPEDTAVYYCAADYLYAYGDVADVYGWYAYYYWGQGTQVTVSS”, “low polyreactivity”; in that of “QLQLVESGGGLDQAGGSLRLSCAASGGTFFKNAMGWYRQAPGNERELVAVIDTISTSTYYAESVKGRFTISRDNAKNTVYLQMNSLKPEDTAVYYCAAEYGPGLTEGLYYYWGQGTQVTVSS”, “high polyreactivity”.
For the sequence “QLQLVESGGGLFQAGGRLRLSFAATGSTFGYYARGWYRQAPGKERELVAAISGSGGSTYYADSVKGRFTISRDNAKNTVYLQMNSLKPEDTAVYYCAATFHRLPKWGSPYYYWGQGTQVTVSS”, the “polyreactivity (PSR sort gate)” value was “high polyreactivity”.
For “QLQLVESGGGLFQAGGSLRISCAASGRTFLRNAMGSYRQPPGKEREFVATISAGGGSTYYADSVKGRFTISRDNAKNTVYLQMNSLKPEDTAVYYCAARYRAGPGYGMDSCGQGTQVTVSS”, the “polyreactivity (PSR sort gate)” value was “high polyreactivity”.
In the case of “QLQLVESGGGLVQAAGSLRLSSAASGSIFPDNAKGWYRQAPAKERELVATITSGGDTNYADSVKGRFTISRDNAKNTVYLQMNSLKPEDTAVYYCAADVYPDWLVKYDYWGQGTQVTVSS” it was “low polyreactivity”; in that of “QLQLVESGGGLVQAGASLRLSCAASGFIFKYNAMGWYRQAPCKERELVSAISRGTSTYYADSVKGRFTISRDNAKNTVYLQLNSLKPEDTAVYYCEATGRRPGQKYMGYDYWGQGTQVTVSS”, “high polyreactivity”; in that of “QLQLVESGGGLVQAGCSLRLSCADSGRNYTMGRYRQAPGKERELVDASSKSGGSTSYADSVKGRFTISRDNAKNTVYLQLNSLKPEDTAVYYCATALRGSQAYSVRAMNYWGQATQVTVSS”, “high polyreactivity”.
For “QLQLVESGGGLVQAGGRLRLSCAASGITYFTYDMGWYRQAPGKERELVAAISGSGGSTYYADSVKGRFTISRDNAKNSFYLQMTSLKPEDTAVYYCAAEYTYGSPYDYWGQGTQVTVSS”, the “polyreactivity (PSR sort gate)” value is recorded as “low polyreactivity”.
In the case of “QLQLVESGGGLVQAGGSIRLSCAASGSIFDWYAMGWYRQEPGKERELVARITSGGRTNYADSVKGRFTISRDNAKNTVYLQMNSLKPEDTAVYYCAAGRVSWSPYYYWGQGTQVTVSS” it was “high polyreactivity”; in that of “QLQLVESGGGLVQAGGSLRFSCAASGYISRRYAMVWSIQAPGKERELVAAITGGGGSTYYADSVKGRFTISRDNAKNTVYLQMNSLKPEFTAVYYCNAYWGRSGYAGGYWGQGTQVTVSS”, “high polyreactivity”.
Turning to “QLQLVESGGGLVQAGGSLRISCAASRSTFENNAMGWYRQAPGKERELVASSTNYADSVKGRFTISRDNAKNTVYLQMNSLKPEDTAVYYCAREQGVNRNHDYWGQATQVTVSS”, the “polyreactivity (PSR sort gate)” value is given as “low polyreactivity”.
Regarding “QLQLVESGGGLVQAGGSLRLSCAASGFIFYLYAMGWYRQAPGKDRELVAAISWSGGITYYADSVKGRFTISRDNAKNTVYLQMNSLKPEDTAVNYCNAVGASASDGDSWGQGTQVTVSS”, the “polyreactivity (PSR sort gate)” value was “high polyreactivity”.
Regarding “QLQLVESGGGLVQAGGSLRLSCAASGRIFDYYAIGWYRQAPGKERQLVATINFSDGSTYYADSVKGRFTISRDNAKNTVYLQMNSLKPEDTAVYYCAAAGWEPYDSLDMNYWGQGTQVTVSS”, the “polyreactivity (PSR sort gate)” value is recorded as “low polyreactivity”.
The same measure for “QLQLVESGGGLVQAGGSLRLSCAASGRIFGNYAMGWYRQAPGKERELVASINIGGGSTYYADSVKGRFTISRDNAKNTVYLQMNSLKQEATAVYYCAAPNTTDYWPAQPGFDYWGQGTQVTVSS”: “low polyreactivity”.
